Columns and labels:
[1] = test system: IGF2BP2 KH34 (IGF2BP2KH34) (Homo sapiens); experiment: MST; settings: MST: 50 mM phosphate pH 7.0, 150 mM NaCl, 0.05% Tween 20, room temperature, 20 min incubation, 250 nM labeled RNA
[2] = test system: IGF2BP2 RRM (IGF2BP2RRM) (Homo sapiens); experiment: MST; settings: MST: 50 mM phosphate pH 7.0, 150 mM NaCl, 0.05% Tween 20, room temperature, 20 min incubation, 250 nM labeled RNA

Substance | Kd [1] [µM] | Kd [2] [µM]
ZIKV 5' NTR | 0.203 | 
ZIKV 3' NTR | 0.418 | 1.6

From PMC11578589
